Measured values taken from patent US20240239872A1 (SHANDONG AGRICULTURAL UNIVERSITY, published 2024).

T1: CP of tomato brown rugose fruit virus (genus Tobamovirus) (Tomato brown rugose fruit virus, UniProt A0A0S2SZX3 2-159)
T1 construct: also called ToMMV (as printed for this virus)
T1 sequence: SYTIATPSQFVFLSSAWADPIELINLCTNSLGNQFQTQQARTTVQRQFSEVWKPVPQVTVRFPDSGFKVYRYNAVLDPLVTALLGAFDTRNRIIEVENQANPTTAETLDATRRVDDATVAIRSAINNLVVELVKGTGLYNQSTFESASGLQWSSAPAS

B1: monoclonal antibody N1 (antibody, V domains shown)
VH: EVQLVESGGGLVQPGGSLKLSCAASGFTFSSYGMSWVRQSPDKRLEWVATINNNGGSTYYPDSVKGRFTISRDNAKNTLYLQMSSLKSEDTAVYYCARDAAFDCWGQGTTLTVSS
VL: DIVMSQSPSSLAVSAGEKVTMSCKSSQSLLNSRTRKNYLAWYQQKPGQSPKLLIYWASTRESGVPDRFTGSGSGTDFTLTISSVQAEDLAVYYCKQSYNLFTFGSGTKLEIK
notes: also called MAb N1
B2: monoclonal antibody C1 (antibody, V domains shown)
VH: EVQLQQSGAELVRPGALVKLSCKASGFNIKDYYMHWVKQRPEEGLEWIGWIDPENGNTIYDPKFQGKASITADTSSNTVRLQLSSLTSEDTAVYYCARERGAYWGQGTLVTVSA
VL: QIVLTQSPAIMSASPGEKVTMTCSASSSVSYMYWFQQKPGSSPRLLIYDTSNLASGVPVRFSGSGSGTSYSLTISRMEAEDAATFYCQQWSSYPLTFGAGTKLELK
notes: also called MAb C1
B3: monoclonal antibody M2 (antibody, V domains shown)
VH: EVQLVESGGGLVQPKGSLKLSCAASDFTFNTHSMNWVRQAPGKVLEWIARIRSQSNNYATYYADSVKDRFTISRDDSQNMFYLQMNNLKTEDTAMYYCAGDYYGPFAYWGQGTLVAVSA
VL: DVLMTQTPLSLPVSLGDQASISCRSGQSLVHSNGNTYLHWYLQKPGQSPKLLIYKVSNRFSGVPDRFSGSGSGTDFTLKISRVEAEDLGVYFCSQSTHVPWTFGGGTKLEIK
notes: also called MAb M2
B4: monoclonal antibody M3 (antibody, V domains shown)
VH: EVILVESGGGLVKPGGSLRLSCAASGFTFSSHPLSWVRQSPDKRLEWVASISSGGRYTYYPDSVKGRLTISRDNAKNILYLHMNSLRSEDTAMYYCARRGSTATAWFAYWGQGTLVTVSA
VL: DIALTQSPASLAVSLGQRATISCKASQSVDYDGDSYMSWYQQKPGQPPKLLIYGASNLESGIPARFSGSGSGTDFTLNIHPVEEEDAATYYCQQSNEDLPTFGGGTKLEIK
notes: also called MAb M3
B5: monoclonal antibody M1 (antibody, V domains shown)
VH: QVQLQQSGPELVRPGASVKMSCKTSGYPFSTYWMHWVKQRPGQGLEWIGMIKPSNSETSLNQKFKDKATLNVDKSSNTAYMQLNSLTSEDSGVYYCARAGDSWGQGTTLTVSS
VL: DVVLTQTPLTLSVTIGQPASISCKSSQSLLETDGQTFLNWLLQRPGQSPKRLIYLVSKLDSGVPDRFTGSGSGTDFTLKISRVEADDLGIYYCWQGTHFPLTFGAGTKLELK
notes: also called MAb M1

Target: T1, CP of tomato brown rugose fruit virus …
Experiment: dot blot; also Western blot and ELISA

Binder	binding result
B1	no binding
B2	no binding
B3	no binding
B4	no binding
B5	no binding
